From patent US20210057047A1, “IN-SILICO METHOD FOR DESIGNING A (D)-POLYPEPTIDE LIGAND” (THE GOVERNING COUNCIL OF THE UNIVERSITY OF TORONTO, priority 2018, published 2021)
Where two headings read alike, the source gives them in different places. Square brackets hold non-standard residues; d marks the D form. Ends that are not written are not given here. Peptide text beside a SMILES is read from it.

What was measured:
[1] = target: T1, Proteinase K (ProtK) (Parengyodontium album, UniProt P06873); assay: in vitro; format: in vitro ADME
T1 construct: purchased Bioshop
T1 sequence (P06873 106-384): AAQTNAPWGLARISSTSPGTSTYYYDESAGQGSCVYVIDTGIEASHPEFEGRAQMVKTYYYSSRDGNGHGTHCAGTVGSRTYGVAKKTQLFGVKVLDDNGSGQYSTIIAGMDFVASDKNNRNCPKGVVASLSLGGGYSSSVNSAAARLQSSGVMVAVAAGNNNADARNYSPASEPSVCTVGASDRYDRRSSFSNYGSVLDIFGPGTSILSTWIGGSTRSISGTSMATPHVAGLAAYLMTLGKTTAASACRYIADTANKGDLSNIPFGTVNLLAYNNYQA
Procedure: Stocks of 20 μM peptide in 200 μL total volume (10 mM Tris-base, 10 mM NaCl, pH 7.4) were supplemented with 5 μM CaCl2) and 30 uL removed for the untreated T0 sample. Proteinase K (ProtK, Bioshop) was then added to a final concentration of 100 μg/mL. Samples were incubated at 37° C. and 30 μL removed after each time point and protease activity blocked by the addition of 10 mM PMSF (200 mM stock dissolved in isopropanol). Protease inactivated samples were frozen at −20° C. until further use. Digestions were repeated three times. Frozen samples were supplemented with 8 μL sample loading buffer (4× NuPAGE, ThermoFisher Scientific), boiled ([…]) for 10 minutes, and centrifuged (12 000 rpm, 10 min) prior to loading the gel (12% NuPAGE Bis-Tris (ThermoFisher Scientific) with MES running buffer). Gels were run at 200 V for […] and stained using Coomassie Brilliant Blue dye. Densitometry of bands was determined using ImageJ software (40) with back ground subtraction. All samples were normalized to their respective untreated sample (T0).

[2] = FDA approved peptide drugs, Table 1; cited from earlier work

| Compound | t½ [2] | other results |
| --- | --- | --- |
| CC[C@@H](C)[C@@H](NC(=O)[C@@H](C)NC(=O)[C@@H](CCC(=O)O)NC(=O)[C@H](NC(=O)[C@@H](CC(C)C)NC(=O)[C@@H](CCC(=O)O)NC(=O)CNC(=O)[C@@H](C)NC(=O)[C@@H](C)NC(=O)[C@@H](CC(C)C)NC(=O)[C@H](NC(=O)[C@@H](Cc1ccccc1)NC(=O)[C@@H](CC(C)C)NC(=O)[C@@H](CCC(=O)O)NC(=O)[C@@H](CC(C)C)NC(=O)[C@@H](Cc1ccccc1)NC(=O)[C@@H](C)NC(=O)[C@@H](CCCCN)NC(=O)CNC(=O)[C@H](N)CCCNC(=N)N)[C@H](C)CC)[C@H](C)CC)C(=O)N[C@H](CC(=O)O)C(=O)N[C@H](CCCNC(=N)N)C(=O)N[C@@H](C(=O)N[C@H](Cc1ccccc1)C(=O)N[C@@H](C(=O)NCC(=O)N[C@H](CCC(=O)O)C(=O)N[C@H](C)C(=O)N[C@H](Cc1c[nH]cn1)C(=O)O)[C@H](C)O)[C@H](C)O [(D)-GLP1] (H-[dR]G[dK][dA][dF][dL][dE][dL][dF][dI][dL][dA][dA]G[dE][dL][dI][dE][dA][dI][dD][dR][dT][dF][dT]G[dE][dA][dH]-OH; N-terminus and C-terminus assumed) | – | degradation by ProtK (in words) [1]: persists after 5 hours |
| CC(C)C[C@H](NC(=O)[C@H](CCCCN)NC(=O)CNC(=O)[C@H](CC(C)C)NC(=O)[C@@H](NC(=O)[C@@H]1CSSC[C@H](N)C(=O)N[C@@H](CO)C(=O)N[C@@H](CC(N)=O)C(=O)N[C@@H](CC(C)C)C(=O)N[C@@H](CO)C(=O)N[C@@H]([C@@H](C)O)C(=O)N1)C(C)C)C(=O)N[C@@H](CO)C(=O)N[C@@H](CCC(N)=O)C(=O)N[C@@H](CCC(=O)O)C(=O)N[C@@H](CC(C)C)C(=O)N[C@@H](Cc1c[nH]cn1)C(=O)N[C@@H](CCCCN)C(=O)N[C@@H](CC(C)C)C(=O)N[C@@H](CCC(N)=O)C(=O)N[C@H](C(=O)N[C@@H](Cc1ccc(O)cc1)C(=O)N1CCC[C@H]1C(=O)N[C@@H](CCCNC(=N)N)C(=O)N[C@H](C(=O)N[C@@H](CC(N)=O)C(=O)N[C@H](C(=O)NCC(=O)N[C@@H](CO)C(=O)NCC(=O)N[C@H](C(=O)N1CCC[C@H]1C(N)=O)[C@@H](C)O)[C@@H](C)O)[C@@H](C)O)[C@@H](C)O [Calcitonin] | 0.967 h | – |
| CC[C@H](C)[C@H](NC(=O)[C@H](Cc1ccccc1)NC(=O)[C@H](CC(=O)O)NC(=O)[C@H](CCCNC(=N)N)NC(=O)[C@H](C)NC(=O)[C@H](C)NC(=O)[C@H](CC(C)C)NC(=O)[C@H](CC(N)=O)NC(=O)[C@H](CC(=O)O)NC(=O)[C@H](CC(C)C)NC(=O)[C@@H](NC(=O)[C@@H](NC(=O)[C@H](CC(N)=O)NC(=O)[C@H](CCSC)NC(=O)[C@H](CCC(=O)O)NC(=O)[C@H](CC(=O)O)NC(=O)[C@H](CO)NC(=O)[C@H](Cc1ccccc1)NC(=O)[C@H](CO)NC(=O)CNC(=O)[C@H](CC(=O)O)NC(=O)CNC(=O)[C@@H](N)Cc1c[nH]cn1)[C@@H](C)O)[C@@H](C)CC)C(=O)N[C@@H](CC(N)=O)C(=O)N[C@@H](Cc1c[nH]c2ccccc12)C(=O)N[C@@H](CC(C)C)C(=O)N[C@H](C(=O)N[C@@H](CCC(N)=O)C(=O)N[C@H](C(=O)N[C@@H](CCCCN)C(=O)N[C@H](C(=O)N[C@H](C(=O)N[C@@H](CC(=O)O)C(=O)O)[C@@H](C)O)[C@@H](C)CC)[C@@H](C)O)[C@@H](C)CC [Teduglutide] | 1.33 h | – |
| (L)-GLP-2: native GLP-2, gastrointestinal peptide | – | time until all peptide is degraded ([1]; exposure to ProtK, 37° C.): about 1 hr; degradation by ProtK (in words) ([1]; treatment with ProtK over 5 hours): rapid degradation |
| (L)-PTH: native parathyroid hormone, residues 1-34 | – | degradation by ProtK (in words) [1]: rapid degradation; time until all peptide is degraded [1]: under 1 hr |
| Glucagon | 0.25 h | – |
| Parathyroid Hormone | 3 h | – |
| Sermorelin | 0.2 h | – |
| Thymosin (Ac-SDAAVDTSSEITTKDLKEKKEVVEEAEN; UniProt P06454 2-29, looked up) [FDA approved peptide drug, hepatitis, cancer] | 2 h | – |
